Experimental data taken from patent US20250002610A1 (Genmab, published 2025).

Legend:
[1] = biological target: T1, human DR4 (Death Receptor 4), cell surface expressed on human tumor cell lines (human, UniProt O00220 24-468); assay: flow cytometry, A549 cells, n = 1
T1 construct: also called TNFRSF10A; TRAIL-R1
T1 sequence: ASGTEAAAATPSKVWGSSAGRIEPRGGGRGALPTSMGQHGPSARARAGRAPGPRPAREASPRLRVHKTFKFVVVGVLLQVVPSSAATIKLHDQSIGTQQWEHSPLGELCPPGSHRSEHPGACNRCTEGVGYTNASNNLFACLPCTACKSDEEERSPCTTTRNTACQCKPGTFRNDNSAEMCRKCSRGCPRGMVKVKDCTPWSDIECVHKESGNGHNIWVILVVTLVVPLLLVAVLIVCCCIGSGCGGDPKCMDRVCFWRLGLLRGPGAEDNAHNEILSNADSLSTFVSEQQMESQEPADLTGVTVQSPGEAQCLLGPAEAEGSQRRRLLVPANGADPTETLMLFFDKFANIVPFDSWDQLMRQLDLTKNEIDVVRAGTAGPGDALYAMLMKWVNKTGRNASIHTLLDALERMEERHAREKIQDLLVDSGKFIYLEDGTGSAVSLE

[2] = biological target: T1, human DR4 (Death Receptor 4), cell …; assay: flow cytometry, A549 cells, n = 2
[3] = biological target: T1, human DR4 (Death Receptor 4), cell …; assay: flow cytometry, A549 cells, n = 3
[4] = biological target: T1, human DR4 (Death Receptor 4), cell …; assay: flow cytometry, DLD-1 cells, n = 3
[5] = biological target: T1, human DR4 (Death Receptor 4), cell …; assay: flow cytometry, PANC-1 cells, n = 3
[6] = biological target: T1, human DR4 (Death Receptor 4), cell …; assay: flow cytometry, MDA-MB-231 cells, n = 2
[7] = biological target: T1, human DR4 (Death Receptor 4), cell …; assay: flow cytometry, A549 cells, average ± SEM
[8] = biological target: T1, human DR4 (Death Receptor 4), cell …; assay: flow cytometry, PANC-1 cells, average ± SEM
[9] = biological target: T1, human DR4 (Death Receptor 4), cell …; assay: flow cytometry, HCT-116 cells, average ± SEM
[10] = biological target: T1, human DR4 (Death Receptor 4), cell …; assay: flow cytometry, MDA-MB-231 cells, average ± SEM
[11] = biological target: T2, human FAPα (Fibroblast activation protein alpha), cell surface expressed (human, UniProt Q12884 1-760); assay: flow cytometry, Expi293F cells expressing human FAPα, n = 2
T2 construct: Endogenous on human lung fibroblasts and CAFs
T2 sequence: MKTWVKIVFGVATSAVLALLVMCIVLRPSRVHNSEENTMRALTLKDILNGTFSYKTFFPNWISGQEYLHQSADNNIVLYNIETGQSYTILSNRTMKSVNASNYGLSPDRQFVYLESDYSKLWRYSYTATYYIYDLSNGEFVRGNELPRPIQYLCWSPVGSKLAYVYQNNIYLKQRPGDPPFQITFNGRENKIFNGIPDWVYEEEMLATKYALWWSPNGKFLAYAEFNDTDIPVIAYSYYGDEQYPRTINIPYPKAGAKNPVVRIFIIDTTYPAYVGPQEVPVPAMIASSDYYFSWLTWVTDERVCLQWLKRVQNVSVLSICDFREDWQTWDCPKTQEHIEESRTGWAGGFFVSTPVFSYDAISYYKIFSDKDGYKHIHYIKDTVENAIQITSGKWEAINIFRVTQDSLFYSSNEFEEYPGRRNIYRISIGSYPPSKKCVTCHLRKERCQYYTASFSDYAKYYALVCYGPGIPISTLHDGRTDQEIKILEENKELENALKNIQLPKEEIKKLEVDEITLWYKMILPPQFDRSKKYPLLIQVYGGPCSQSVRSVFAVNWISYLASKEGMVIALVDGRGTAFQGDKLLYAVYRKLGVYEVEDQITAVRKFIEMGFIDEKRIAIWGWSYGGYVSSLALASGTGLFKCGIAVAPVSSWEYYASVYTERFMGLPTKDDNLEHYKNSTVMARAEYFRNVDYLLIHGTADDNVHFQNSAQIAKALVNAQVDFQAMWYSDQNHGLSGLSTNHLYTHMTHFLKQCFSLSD
Experimental: Binding of BisG1-FAPα-FERL/DR4-FERR, BisG1-FAPα-FEAL/b12-FEAR and IgG1-FAPα-FERL to FAPα of species commonly used for nonclinical toxicology studies was assessed by flow cytometry using Expi293F cells transiently expressing FAPα from different animal species. IgG1-b12 was included as negative control.
Expi293F cells expressing recombinant FAPα from various species (human, cynomolgus monkey, dog, pig, rat or mouse) were seeded (20,000 cells/well) in 96-Well round bottom plates (Greiner Bio-one, Cat #650101). Antibody dilutions were prepared using FACS buffer, consisting of PBS (Capricorn Scientific, Cat #PBS-10XA, diluted to 1×PBS in distilled water)+1% BSA (Roche, Cat #10735086001)+0.02% Sodium Azide (Bio-World, Cat #41920044-3). Plates were centrifuged, supernatant was removed, and cells were resuspended in 100 μL of antibody dilutions (concentration range 30-0.00017 μg/mL with three-fold serial dilutions using FACS buffer) of BisG1-FAPα-FERL/DR4-FERR, BisG1-FAPα-FEAL/b12-FEAR, IgG1-FAPα-FERL and IgG1-b12 and incubated for 30 min at 4° C. […] After 30 min incubation at 4° C., cells were washed with FACS buffer and resuspended in FACS buffer supplemented with TO-PRO-3 Iodide viability marker (Invitrogen, Cat #T3605, diluted 1:4,000). Antibody binding to viable cells (gMFI of PE on TO-PRO-3 negative cells) was analyzed by flow cytometry on a FACS Celesta and FACS_Diva software (first two experiments) or iQue® 3 and FlowJo software (last experiment). gMFI was determined and visualized using GraphPad Prism. Binding curves were analyzed using nonlinear regression analysis. The concentration (pg/mL) at which 50% of the maximal effect was observed (EC₅₀) was derived from the fitted curves.

B1: BisG1-FAPα-FERL/DR4-FERR (bispecific antibody, human IgG1, kappa, lambda)
heavy 1: EVQLLESGGGLVQPGGSPRLSCEASGFTFSSYALSWVRQAPGKGLEWVSAISGSGGGRYYADSVKGRFTISRDNSKNTLFLQMNSLRAEDTAVYYCAKEGYSSSGTYWDHWGQGTLVTVSSASTKGPSVFPLAPSSKSTSGGTAALGCLVKDYFPEPVTVSWNSGALTSGVHTFPAVLQSSGLYSLSSVVTVPSSSLGTQTYICNVNHKPSNTKVDKRVEPKSCDKTHTCPPCPAPEFERGPSVFLFPPKPKDTLMISRTPEVTCVVVDVSHEDPEVKFNWYVDGVEVHNAKTKPREEQYNSTYRVVSVLTVLHQDWLNGKEYKCKVSNKALPAPIEKTISKAKGQPREPQVYTLPPSREEMTKNQVSLTCLVKGFYPSDIAVEWESNGQPENNYKTTPPVLDSDGSFLLYSKLTVDKSRWQQGNVFSCSVMHEALHNHYTQKSLSLSPG
light 1: AIQMTQSPSSVSASVGDRVTITCRASQGVSSWLAWYQQKPGRAPKLLIYVASTLQSGVPSRFSGSGSGTDFTLTINSLQPEDFATYYCQQANSFPPTFGQGTRLEMKRTVAAPSVFIFPPSDEQLKSGTASVVCLLNNFYPREAKVQWKVDNALQSGNSQESVTEQDSKDSTYSLSSTLTLSKADYEKHKVYACEVTHQGLSSPVTKSFNRGEC
heavy 2: QVQLQESGPGLVKPSGTLSLTCAVSGGSISSYSWWSWIRQPPGKGLEWIGELYHSGSTNYNPSLKSRVTISVDKSKNQFSLKLRSVTAADTAVYYCVRGVATIDYWGQGTLVTVSSASTKGPSVFPLAPSSKSTSGGTAALGCLVKDYFPEPVTVSWNSGALTSGVHTFPAVLQSSGLYSLSSVVTVPSSSLGTQTYICNVNHKPSNTKVDKRVEPKSCDKTHTCPPCPAPEFERGPSVFLFPPKPKDTLMISRTPEVTCVVVDVSHEDPEVKFNWYVDGVEVHNAKTKPREEQYNSTYRVVSVLTVLHQDWLNGKEYKCKVSNKALPAPIEKTISKAKGQPREPQVYTLPPSREEMTKNQVSLTCLVKGFYPSDIAVEWESNGQPENNYKTTPPVLDSDGSFFLYSRLTVDKSRWQQGNVFSCSVMHEALHNHYTQKSLSLSPG
light 2: QSALTQPPSASGSPGQSVTISCTGTSSDVGGYNFVSWYQQDPGKAPKLLIYEVTKRPSGVPDRFSGSKSGNTASLTVSGLQAEDEADYYCSSYAGSNNVMFGGGTKLTVLGQPKAAPSVTLFPPSSEELQANKATLVCLISDFYPGAVTVAWKADSSPVKAGVETTTPSKQSNNKYAASSYLSLTPEQWKSHRSYSCQVTHEGSTVEKTVAPTECS
notes: Human IgG1 bispecific made by controlled Fab-arm exchange of IgG1-FAPα-FERL and IgG1-DR4-FERR; monovalent for FAPα and for DR4; also called GEN1057
[1]
  EC50: 0.86 µg/mL
[2]
  EC50: 0.93 µg/mL
[3]
  EC50: 0.87 µg/mL
[4]
  EC50: 0.67 µg/mL
[5]
  EC50: 1.4 µg/mL
[6]
  EC50: 1.24 µg/mL
[7]
  EC50: 0.89 µg/mL
[8]
  EC50: 1.7 µg/mL
[9]
  EC50: 0.52 µg/mL
[10]
  EC50: 1.18 µg/mL
[11]
  EC50: 0.32 µg/mL
